{
  "source": "patent US20030108957A1",
  "key": {"[1]": {"target": "E. coli DnaK (E. coli), A1A766"}, "GroES, P0A6F9": {"target": "T1, GroES, P0A6F9", "T1 chain": "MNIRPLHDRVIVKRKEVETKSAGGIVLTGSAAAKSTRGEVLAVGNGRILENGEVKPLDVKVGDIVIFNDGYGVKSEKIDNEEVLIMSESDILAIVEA"}, "GroEL (E. coli), P0A6F5 [2]": {"target": "GroEL (E. coli), P0A6F5"}, "GrpE, P09372": {"target": "T2, GrpE, P09372", "T2 chain": "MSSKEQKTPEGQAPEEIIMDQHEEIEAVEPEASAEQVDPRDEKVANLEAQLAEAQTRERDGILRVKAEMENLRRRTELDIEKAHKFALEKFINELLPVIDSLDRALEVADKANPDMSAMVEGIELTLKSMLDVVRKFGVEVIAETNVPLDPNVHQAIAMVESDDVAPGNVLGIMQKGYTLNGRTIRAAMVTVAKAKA"}, "[3]": {"target": "E. coli DnaK (E. coli), A1A766", "remark": "listed apart in the source"}, "GroEL (E. coli), P0A6F5 [4]": {"target": "GroEL (E. coli), P0A6F5", "remark": "listed apart in the source"}, "[5]": {"target": "Hsp60 (the human equivalent of GroEL) (human), P10809", "sequence (P10809 27-573 limits assumed)": "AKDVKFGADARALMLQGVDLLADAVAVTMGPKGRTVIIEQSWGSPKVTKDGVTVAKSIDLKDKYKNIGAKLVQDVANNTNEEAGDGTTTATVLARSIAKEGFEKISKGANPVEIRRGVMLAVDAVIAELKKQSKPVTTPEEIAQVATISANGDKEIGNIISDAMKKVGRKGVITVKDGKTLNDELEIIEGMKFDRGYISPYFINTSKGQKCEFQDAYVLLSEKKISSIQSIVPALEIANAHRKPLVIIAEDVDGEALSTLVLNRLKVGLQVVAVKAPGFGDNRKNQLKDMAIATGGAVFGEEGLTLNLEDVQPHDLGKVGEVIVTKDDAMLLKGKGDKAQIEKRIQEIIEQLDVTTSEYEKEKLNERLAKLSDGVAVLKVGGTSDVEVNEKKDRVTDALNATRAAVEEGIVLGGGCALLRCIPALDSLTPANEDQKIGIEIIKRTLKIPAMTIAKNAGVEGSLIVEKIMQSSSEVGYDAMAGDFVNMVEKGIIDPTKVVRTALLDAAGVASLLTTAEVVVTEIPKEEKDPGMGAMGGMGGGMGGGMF", "assay": "fluorescence polarization, 1 nM labeled peptide, 4 µM protein; blank about 62"}, "[6]": {"target": "E. coli DnaK (E. coli), A1A766", "remark": "listed apart in the source"}, "[7]": {"target": "E. coli DnaK aa583-615 (hinge region between C-terminal helices D and E) (E. coli)"}, "[8]": {"target": "E. coli DnaK aa588-615 (E. coli)"}, "[9]": {"target": "guanyl-nucleotide binding protein Ras (21 kDa)", "assay": "fluorescence polarization, 1 nM labeled peptide, 4 µM Ras; background without protein 46±7"}, "[10]": {"target": "Hsp60 (the human equivalent of GroEL) (human), P10809", "assay": "fluorescence polarization, 1 nM labeled peptide, 2 µM protein; blank about 62"}, "[11]": {"target": "E. coli DnaK (E. coli), A1A766", "assay": "cell-based or functional assay"}},
  "note": "Several values for one entry are separate records, joined by “and”; a condition that tells them apart may be missing. Equal values may be shown once.",
  "data": [
    {"binder": "KVDKGSYLPRPTPPRPIYNRN (modifications not checked)", "note": "[fluorescein-K-pyrrhocoricin]", "values": [
      {"measurement": "minipolarization value (millipolarization)", "setting": "[1]", "value": "100 and 95"},
      {"measurement": "minipolarization value (millipolarization)", "setting": "GroES, P0A6F9", "value": "< 62"},
      {"measurement": "minipolarization value (millipolarization)", "setting": "GroEL (E. coli), P0A6F5 [2]", "value": "> 100 and 85"},
      {"measurement": "minipolarization value (millipolarization)", "setting": "GrpE, P09372", "value": "< 62"},
      {"measurement": "Millipolarization (no competing peptide) (millipolarization)", "setting": "[3]", "value": 126},
      {"measurement": "Millipolarization (no competing peptide) (millipolarization)", "setting": "GroEL (E. coli), P0A6F5 [4]", "value": 70},
      {"measurement": "minipolarization value (millipolarization)", "setting": "[5]", "value": 90},
      {"measurement": "Kd", "setting": "[6]", "value": 1100, "unit": "nM"},
      {"measurement": "millipolarization over the background", "setting": "[6]", "value": 50, "unit": "%"},
      {"measurement": "Kd", "setting": "[7]", "value": 50.8, "unit": "µM"},
      {"measurement": "Kd", "setting": "[8]", "value": 93, "unit": "µM"},
      {"measurement": "millipolarization units (millipolarization units)", "setting": "[9]", "value": 52},
      {"measurement": "minipolarization value (millipolarization)", "setting": "[10]", "value": 62}
    ]},
    {"binder": "VDKGSYLPRPTPPRPIYNRN (modifications not checked)", "note": "[pyrrhocoricin (unlabeled, all L-amino acids, without sugar)]", "values": [
      {"measurement": "ATPase activity of recombinant DnaK (EnzChek assay, UV absorbance at 360 nm), 50 molar equivalents of peptide (fraction of the original value)", "setting": "[11]", "value": "< 0.5"},
      {"measurement": "Millipolarization after preincubation (millipolarization)", "setting": "[3]", "value": "110 and 84"},
      {"measurement": "Millipolarization after preincubation (millipolarization)", "setting": "GroEL (E. coli), P0A6F5 [4]", "value": 62}
    ]}
  ]
}
